One assay deals with podocyte FP. The assay is described as follows: Podocyte foot process architecture by electron microscopy after gene delivery. It is filed as in vivo, mouse. Conditions: gene delivery into wildtype mice. From the text:
Next it was explored whether gene delivery of dynamin mutants dynR725A and dynL356Q, G358V into mice can be expressed in podocytes and if this procedure can affect podocyte FP architecture and function. First, we needed to establish a safe and reliable detection system of transferred gene expression in podocytes. Therefore we analyzed which dynamin isoforms are expressed in podocytes by RT-PCR. Podocytes express mainly dynamin 2 and little dynamin 3 but no dynamin 1 (FIG. 5A). Gene-transfer CMV promotor driven dynamin 1 constructs were used because neuronal dynamin protein is normally not expressed in podocytes and could be easily tracked by a specific monoclonal dynamin 1 antibody (FIG. 5B). […] Monoclonal dynamin antibodies MAB 5402 […] were used, which predominantly recognize dynamin 1 (FIG. 5B). Labeling of glomerular sections with MAB 5402 detected some minimal background labeling of dynamin, representing endogenous dynamin 2 (FIG. 5C). The gene transfer of dynamin 1 expression vectors led to a strong expression of dynamin 1 in glomerular cells including podocytes (FIG. 5D). Some of this labeling was also detected in podocytes, which are marked positively by synaptopodin staining, resulting in a yellow staining pattern (FIG. 5E).

Another assay concerns podocytes. The assay is described as follows: Rhodamine-transferrin uptake (endocytosis) in podocytes. The format is cell-based, mouse. Conditions: overexpression in podocytes. The method, then: Since dynamin is known to play a major role in regulation of clathrin-mediated endocytosis, it appeared possible that the observed actin phenotypes as described above were indirect consequence of changes in endocytosis. […] While LPS treatment of cells overexpressing dynWT had no effect on endocytosis of rhodamine-transferrin (FIG. 1D), it did induce cell motility and changes in actin cytoskeleton.
Conditionally immortalized mouse podocyte cell lines were grown as described previously (Mundel et al., Exp Cell Res 236; 248-258; (1997)). Dynamin antibodies: Anti-dynamin (hudy 1) monoclonal antibody was purchased from Upstate Technology (Lake Placid, N.Y.); mouse anti-dyn1 monoclonal antibody (MAB 5402) was from Chemicon (Temecula, Calif.); mouse anti-dyn1 monoclonal antibody (VAM-SVO41) was from StressGene (Victoria, Canada). The rabbit antiserum against mouse CatL was used as described (Ishidoh and Kominami, 1994). For immunogold and immunocytochemistry analysis of CatL, we used a rabbit polyclonal antibody against CatL as described before (Ahn et al., Traffic 3, 147-159 (2002)). CatL −/− fibroblasts were maintained as described previously (Hsieh et al., J Immunol 168, 2618-2625 (2002)). Stable CatL knock-down cell lines were generated with a vector-based siRNA directed against CatL (target sequence 5′-GTGGACTGTTCTCACGCT-3; SEQ ID NO.32). Quantitative PCR was performed on a Applied Biosystems 7300 Real-Time PCR System. Fold-expression changes were calculated using the comparative CT method for relative quantitation with the equation 2^−ΔΔCT. Protein expression levels for dynamin and CatL were calculated using densitometric analysis with Kodak imaging software. Statistical significance was assessed with the unpaired t-test with Welch's correction. Transfections with CatL constructs were performed using Lipofectamine 2000 (Invitrogen) following manufacturer's instructions. Immunocytochemical analysis of cultured podocytes was done as described (Reiser et al., J Biol Chem 279, 34827-34832 (2004)). Immunoperoxidase labeling of human tissue was done on formalin fixed kidney biopsies embedded in paraffin. Transmission electron microscopy (TEM) and immunoelectron microscopy (IEM) were performed as described (Regele et al., J Am Soc Nephrol 11, 403-412 (2000)). Subcellular fractionation of cultured cells was performed as described (Damke et al., J Cell Biol 127, 915-934 (1994)). Internalization of rhodamine-transferrin (R-Tfn) was performed using 20 μg/ml R-Tfn in PBS containing 1 mM CaCl2, 1 mM MgCl2, 5 mM glucose, and 0.2% BSA for 10 min at 37° C.

The test system of a further assay is cathepsin L. The assay can be described thus: Generation of dynamin p40 fragment in LPS-treated cultured podocytes (Western blot). It is filed as cell-based, mouse. To be noted: podocytes expressing the variant, LPS-treated. The text has this: Next, it was examined whether cathepsin L could process dynamin in vivo, and whether this processing required GTP binding by dynamin. To this end, cultured podocytes were infected with adenoviruses expressing dynWT as well as different dynamin mutants. Infected podocytes were subsequently treated with LPS. LPS treatment increases cathepsin L presence and the activity in the cytosol (FIG. 3), and thus is expected to induce generation of the 40 kD proteolytic fragment. Respective cytosols were probed using the GTPase antibodies in order to detect N-terminal 40 kD proteolytic fragment. Expression of dynWT in podocytes treated with LPS identified proteolytic fragments that traveled with the same mobility as fragments observed in vitro. […] Furthermore, significant amount of p40 was present in cells expressing dynR725A prior to LPS treatment. […] Given complete protection of cathepsin L cleavage by GTPγS, it was reasoned that LPS treatment was somehow inducing dynR725A self-assembly, which in turn was protecting dynR725A from cathepsin L cleavage. This in turn would explain ability of dynR725A to counteract LPS and PAN treatment (FIG. 1D). […] Biochemical difference between dynWT, dynK694A and dynR725A is that only dynR725A is impaired in the rate of GTP-hydrolysis of assembled dynamin. This is important because GTP-hydrolysis drives disassemble of dynamin. Thus, while all three dynamins are predicted to self-assemble by LPS treatment, only dynR725A will stay assembled due to its inability to hydrolyze GTP. Once assembled dynWT and dynK694A hydrolyze GTP they will fall apart and thus become accessible for cathepsin L cleavage.
To explore CatL-mediated dynamin cleavage in vivo, cultured podocytes were infected with adenoviruses encoding different dynamin mutants and subsequently treated with LPS (FIG. 19G). […] To confirm the identity of the cleavage site, the ELSGGA (SEQ ID NO.29) sequence was mutated to EQSVGA (SEQ ID NO.31) (for simplicity, the mutant is subsequently referred to as dynL356Q). […] Finally, a GTPase-defective dynamin mutant was examined. Dynamin carrying a mutation in its […] (dynR725A) oligomerizes, but is impaired in assembly-stimulated GTP-hydrolysis. DynR725A is therefore predicted to live longer in the assembled state.
Podocytes were grown under non-permissive conditions to 70% confluence. Cells were washed twice with 1×PBS and infected with 1.2 ml of serum-free DMEM media containing 100 μl transactivator virus, 100 μl virus expressing dyn1 or dyn2. After 2 h of infection at 37° C., media containing virus was replaced with full DMEM. If cells were treated with LPS or PAN, 50 μg/ml of LPS or 50 μg/ml PAN was added at this point. 18-24 h post-infection, cells were detached using trypsin and processed either for subcellular fractionation or tested in the motility assays as described in (Reiser et al., J Biol Chem 279, 34827-34832 (2004)). When stated, 20 μM of Z-FF-FMK CatL specific inhibitor (Calbiochem, San Diego, Calif.) was added simultaneously with addition of LPS.
A general note: Immunoblotting shows a protein as a band on a membrane.

Entries after “also recorded” stand apart in the source; their conditions may differ.

Chain of cathepsin L (P06797 114-333 limits assumed): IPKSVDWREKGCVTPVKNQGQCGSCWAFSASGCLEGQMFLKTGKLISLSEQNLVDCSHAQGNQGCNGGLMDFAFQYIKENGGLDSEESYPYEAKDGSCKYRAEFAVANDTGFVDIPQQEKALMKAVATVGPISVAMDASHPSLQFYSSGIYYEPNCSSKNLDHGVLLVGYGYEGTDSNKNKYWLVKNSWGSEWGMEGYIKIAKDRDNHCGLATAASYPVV

B1: dynR725A: dynamin mutant (SEQ ID NO.4) with impaired GTP hydrolysis capacity (protein, listed as Homo sapiens)
chain: MGNRGMEDLIPLVNRLQDAFSAIGQNADLDLPQIAVVGGQSAGKSSVLENFVGRDFLPRGSGIVTRRPLVLQLVNATTEYAEFLHCKGKKFTDFEEVRLEIEAETDRVTGTNKGISPVPINLRVYSPHVLNLTLVDLPGMTKVPVGDQPPDIEFQIRDMLMQFVTKENCLILAVSPANSDLANSDALKVAKEVDPQGQRTIGVITKLDLMDEGTDARDVLENKLLPLRRGYIGVVNRSQKDIDGKKDITAALAAERKFFLSHPSYRHLADRMGTPYLQKVLNQQLTNHIRDTLPGLRNKLQSQLLSIEKEVEEYKNFRPDDPARKTKALLQMVQQFAVDFEKRIEGSGDQIDTYELSGGARINRIFHERFPFELVKMEFDEKELRREISYAIKNIHGIRTGLFTPDMAFETIVKKQVKKIREPCLKCVDMVISELISTVRQCTKKLQQYPRLREEMERIVTTHIREREGRTKEQVMLLIDIELAYMNTNHEDFIGFANAQQRSNQMNKKKTSGNQDEILVIRKGWLTINNIGIMKGGSKEYWFVLTAENLSWYKDDEEKEKKYMLSVDNLKLRDVEKGFMSSKHIFALFNTEQRNVYKDYRQLELACETQEEVDSWKASFLRAGVYPERVGDKEKASETEENGSDSFMHSMDPQLERQVETIRNLVDSYMAIVNKTVRDLMPKTIMHLMINNTKEFIFSELLANLYSCGDQNTLMEESAEQAQRADEMLRMYHALKEALSIIGDINTTTVSTPMPPPVDDSWLQVQSVPAGRRSPTSSPTPQRRAPAVPPARPGSRGPAPGPPPAGSALGGAPPVPSRPGASPDPFGPPPQVPSRPNRAPPGVPSRSGQASPSRPESPRPPFDL
As to B1, the “podocyte FP architecture, in words” value in the assay on podocyte FP is on record as “resulted in partial FP effacement”. In addition, in the assay with podocytes, the “transferrin uptake (endocytosis), in words” value is listed as “exhibited the wild-type levels of endocytosis”. Moreover, the “p40 generation from dynamin variant, in words” value with cathepsin L is listed as “completely abolished presence of the p40; also recorded: did not generate p40”.
